Assay results taken from PMC4735555 (2016).

Target: 2N5.1 TCR
Assay: SPR; Mamu-B*098 loaded with C14nef5

Kd: 2.5 µM
B1: β2m-linked Mamu-B*098 protein (single-chain, refolded without C14nef5, biotinylated) (other)
chain: IQRTPKIQVYSRHPPENGKPNFLNCYVSGFHPSDIEVDLLKNGEKMGKVEHSDLSFSKDWSFYLLYYTEFTPNEKDEYACRVNHVTLSGPRTVKWDRDMGGGGSGGSGSGGGSSGSHSMRYFSTTVSRPGRGEPRFIVVGYVDDTQFVRFDSDAASPKMEPRAPWMEQEGPEYWEEQTRRVKDAAQTFRVSLGNLRGYYNQSEAGSHTLQTMSGCDLGPDGRLLRGYYQQAYDGRDYIALNEDLRSWTAADEAAQNTQRKWEAAGVAEQWRAYLEGECLESLRRYLENGKETLQRAEPPKTHVTHHPVSDHEATLRCWALGFYPAEITLTWQRDGEDQTQDTELVETRPGGDGTFQKWGAVVVPSGEEQRYTCHVQHEGLPEPLTLRWEPLHHILDAQKMVWNHR
modifications: biotin (BirA) on the biotinylation sequence peptide
